Measurements as given in the supplement of paper PMC12042874.
± gives the uncertainty stated by the source.

Experiment: amyloid nucleation score (Sup35N fusion, yeast selection) (log enrichment); library NNK1; higher = more nucleation; inactive = no reads after selection
Method in brief: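 Random libraries were run with three technical output replicates. In each, psi-negative yeast expressing Sup35N fused to peptides of 20 random codons were induced 24 hours with 100 μM copper sulfate and grown 7 days at 30°C on medium lacking adenine and uracil, and input and output plasmid inserts were Illumina-sequenced. The nucleation score is the DiMSum log enrichment of output over input reads, centred on the mode score of non-aggregating sequences, and sequences under 100 input reads were excluded.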

Substance	amyloid nucleation score
NAAYRVWMWKSLVRSLGRYK	0.647 ± 0.4
SLVLSYRVASNIKNPMTLDY	1.24 ± 0.15
EGTFLSGEHTFLNLGFSNRG	0.019 ± 0.6
NMDGLAPISGSFYSRSGNFI	0.964 ± 0.61
YSCPNLIWA	-0.424 ± 0.38
RWTVLRIWIYEVQKIAARRS	0.098 ± 0.44
DDSGRL	0.494 ± 0.59
KKYLVNNYFLGFR	0.127 ± 0.25
VFVHFVSQWDFEATWT	0.27 ± 0.71
KLYGTRFPQFSRSVNEYC	0.111 ± 0.36
WSSYGCAAEMDALVCHGDAF	1.47 ± 0.88
KGFVDNYVTVIVVWT	1.64 ± 0.18
RRNHNSRVVINVLMHVRCSI	1.95 ± 0.1
NCMLTECPGLHSNLMWSKWG	1.5 ± 0.25
CSFMCLARLVSYQIESLW	-0.062 ± 1.2
LQSYWRYRVKRFV	-0.39 ± 0.39
LPVLLSFVSYGS	-0.162 ± 0.34
VYLSRHTNRG	1.53 ± 0.43
IPKCMYGRDRICLMLVAFEN	1.79 ± 0.28
KTRFMLVLKLKRDNDLKMRF	-0.288 ± 0.3
RIVKSGGFNR	-0.089 ± 0.39
RFNWSSDLCSFKTPLSKHVG	0.258 ± 0.41
WFGSYWSIVVTTVRVIV	inactive
TGWQCYSRANVVD	-0.98 ± 0.51

Substance	amyloid nucleation score
LMVNYRLRLYFFVLDSCDGE	-0.348 ± 0.28
SGYVNFHL	inactive
FNRSLLLALVSAFENGLLSW	0.51 ± 1.2
SELPVTGWLLIFLGELTWS	-0.88 ± 1.3
AGVAGL	-0.661 ± 0.4
ACPDHMRV	1.33 ± 0.62
PHSSFPESSCKGSGSVSWAE	-0.172 ± 0.74
VAASFCYIYRRYPSLFLGSR	0.422 ± 0.53
ALEWHGQTYSFRIEI	0.537 ± 0.36
NVMQKNLFGSCIILLSWSLS	0.078 ± 0.26
SQGAMFVTFMFLEYVMPQPP	3.95 ± 0.089
SEPEKG	-0.463 ± 0.43
DGAYWELSY	-0.506 ± 0.27
ILVPLNQGEIWRNKIRYWI	0.019 ± 0.4
LNHNIFVFFLQIIQTHDIWF	4.87 ± 0.09
VCCSATISTIVFSYFYTGKR	7.506 ± 0.053
YSRIARLDVKRVGHEPDVRL	-0.921 ± 2.4
YSINTCCQLVIIDPGSSYEM	6.634 ± 0.047
KSSSV	-0.352 ± 0.6
FNMPDKQILKLESLWHGMVA	inactive
MTRLINYCNGYNAKVVNWCF	0.7 ± 0.97
RALGIDIRIFMVDDNSAFSI	0.347 ± 1.1
YYETLLNKDILDMWEYR	-0.393 ± 0.55
NLTTPIWDRSYCSYMNMMNS	0.369 ± 0.42

Substance	amyloid nucleation score
YEPDELTWSHCTELTEALML	-0.433 ± 0.66
RLMTDHINSTVTSMGKGRIT	-0.026 ± 0.22
RLKLTGFMGLSILERVTLCS	-0.396 ± 0.52
GYLIYSWVLVNWNSGLEINK	2.62 ± 0.17
KEYNLLHDL	-0.691 ± 1.7
MVGQYRYLSPYGW	0.724 ± 1.2
YSIFREW	-0.817 ± 0.53
LVCRYFRNRWMPSTRWGVHS	0.711 ± 0.85
TTYHCGP	0.039 ± 1.5
TYVCDMEHSVYCYYVEAQLY	0.49 ± 0.4
TVLIILRALLNSSPKTFD	0.387 ± 0.22
SGFIEVYVTIRFEFLYFHTP	0.131 ± 0.18
WGSYS	0.118 ± 1.1
YWSQTRFYSMALSRSDSERT	0.135 ± 0.27
IGFRPGRNSVWLMSRDLNFW	-1.11 ± 1.4
PNRRCCPMVGFIWLYRVL	0.836 ± 0.85
AYFRGRVNFSLTFLAYT	-0.098 ± 0.56
RQDAVNNNTCNSISFNP	0.048 ± 0.52
EFIIVRRDGLGAVYSVTNAF	1.08 ± 0.7
RSIRC	-0.615 ± 1.1
VMGFGTCVRKQCSNYLKGIE	0.476 ± 0.63
FDTGGVRRRCACVSLYGVDV	0.027 ± 0.43
RRLNCLILFKVVLLATIFCI	-1.42 ± 0.58
YAQPIFKLCRTG	-0.921 ± 2.4

Substance	amyloid nucleation score
NLSGSFPN	-0.2 ± 0.92
AVYFSSFR	0.522 ± 0.33
CGCETDMGSA	inactive
RYHSY	-0.008 ± 0.77
LVLSSPRHDMSCSYAHFNMN	1.38 ± 0.43
NEVPCVRRWSCRGLCARELM	0.429 ± 0.88
CLQFSVEARRLLKLNVGALE	2.29 ± 0.13
MRPVSLYGFIFCCAFQGLWF	4.99 ± 0.07
DFSVQKSGSYQTEHYLVFRN	-0.12 ± 0.21
RHVGVAGFRFLPGPCDWPAR	3.94 ± 0.14
AVVAIYSQILRNGSVLSWFP	0.242 ± 0.51
LACSVAA	-0.493 ± 0.34
TNSKSSSVGSKATQHN	0.077 ± 0.35
FWWIGYKTSSDGPRAVAIWC	-0.137 ± 0.26
VELLIEFLSRLGWIGCRHVL	0.08 ± 0.86
PCLVGIDMVTMVAESLCGSG	-0.958 ± 1.3
VASYFGLVRNSNLDLYLHCR	-0.131 ± 0.23
AAALRIIGHYMRALLTELLQ	0.687 ± 0.46
FLWSYWPCSVGTEMTSQVRI	-0.459 ± 0.82
ARLSL	0.157 ± 0.64
MYYVIFNTNSHAN	4.55 ± 0.093
CFGFFVWANHAYHAQRCVAS	1.29 ± 0.33
